This series concerns the molecule itself. Briefly: SEC; native size exclusion chromatography, Sephacryl S-100-HR, buffer B (50 mM Tris pH 8, 0.1 M NaCl, 0.5 M KCl, 20% glycerol, 20 mM Na-cholate, 0.1 mM TCEP) as eluent; monomer separated from higher molecular weight forms. In general terms: In gel filtration, larger molecules generally elute earlier.

B1: His-FeCh, recombinant type II ferrochelatase of Synechocystis sp. PCC 6803 with N-terminal His6-tag (enzyme, UniProt P54225 1-387, looked up)
chain: MGRVGVLLLNLGGPEKLEDVRPFLFNLFADPEIIRLPFPWLQKPLAWLISTLRAKKSQANYAEIGGGSPLLQITEAQASALTTRLERLGQDAKVYIGMRYWHPFTEEAVEKIKGDRLQRLVILPLYPHFSISTSGSSFRVLEEMWHNDPSLRQLDYSLIPSWYDHPGYLQAMADLIAQELKKFPNPDQAHIFFSAHGVPQSYVDEAGDPYQAEIEACTRLIMRTLDRPNQYTLAYQSRVGPVEWLKPYTEEALQKLGAEGIDDLLVVPISFVSEHIETLQEIDIEYREIAEEAGIDNFQRVPALNTHPVFIDALAQMVMDSLNDPPCTFETVPHPKKNMKMYPQERWEWGLTTAAEVWNGRLAMLGFIALLVELISGQGPLHFVGLL
notes: Ferrochelatase (hemH) of Synechocystis sp; PCC 6803, GenBank BAA10523.1, amplified from genomic DNA from the start codon to the stop codon; full length with the C-terminal CAB domain; tagged protein 47 kDa; also called full length His-FeCh; not shown: His6, N-terminal, kept
Regarding B1, the binding result is “binds”.

B2: FeCh, recombinant full-length ferrochelatase of Synechocystis sp. PCC 6803 after removal of the N-terminal His6-tag (enzyme, UniProt P54225 1-387, looked up)
chain: B1 chain
notes: Ferrochelatase (hemH) of Synechocystis sp; PCC 6803, GenBank BAA10523.1, full length with the C-terminal CAB domain; monomer 44 kDa; also called full-length FeCh; source: E. coli, His-FeCh after IMAC, His6-tag removed with thrombin, purified (HisGraviTrap, Sephacryl S-100-HR); not shown: His6, N-terminal, cleaved
For B2, the binding result is “binds”.

(Values after article PMC3563542, “Refolding and Enzyme Kinetic Studies on the Ferrochelatase of the Cyanobacterium Synechocystis sp. PCC 6803” (PLoS ONE, 2013).)
